In the supplement of paper PMC10567573:
± gives the standard deviation.

Assay: protein stability index of a GFP-peptide fusion (GPS, HEK-293T) (PSI 1-6); higher = more stable
Conditions: c terminus: a fixed tail appended
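Note: 24-mer peptide tiles fused after GFP, lentivirally expressed, FACS-sorted into six equal bins by GFP/DsRed ratio, decoded by Illumina sequencing, PSI is the read-weighted mean bin number.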

| Sequence | protein stability index (treatment: DMSO) | protein stability index (treatment: MLN4924 1 uM, 8 h) |
| --- | --- | --- |
| LNQKGTAVETEGSGSRHPPWARGC [SLC2A12] | 3.98 ± 0.29 | 4.08 ± 0.38 |
| PKTGRISVPIDLQKVDQFDPFTVP [PRIM1] | 3.6 ± 0.33 | 3.34 ± 0.25 |
| YFQSVTSNRWLMVKIFLILIVFFI [STX5] | 2.85 ± 0.6 | 2.93 ± 0.49 |
| KIRRFNKAKPEPDILEEEKIYAYP [TMEM192] | 3.27 ± 0.35 | 3.54 ± 0.52 |
| SEKAMLRSRIEEQSQLICILKRRS [CCDC89] | 3.07 ± 0.2 | 3.19 ± 0.15 |
| VIVPKEEGVISVSEDRTVRVWLKR [WDFY2] | 2.78 ± 0.32 | 3.17 ± 0.2 |
| LRVGIPENAPIGTLLLRLNATDPD [PCDHGC5] | 2.92 ± 0.18 | 3.22 ± 0.32 |
| QSGRDLQQYQSQAKQLFRKLNEQS [SEC22B] | 3.72 ± 0.29 | 3.83 ± 0.27 |
| SQRAMLLQGTESLNRATQSIERSH [VTI1B] | 4.27 ± 0.13 | 4.35 ± 0.21 |
| GATYLELHSLDDFYIGKYFGGVLE [RHOBTB3] | 2.6 ± 0.61 | 2.32 ± 0.23 |
| AEVRHEIQDGTIHLYIYSIHSIPK [KMT2E] | 2.1 ± 0.76 | 1.51 ± 0.14 |
| LGGFRHKVTGVEYHNAGTQTVPKR [IQUB] | 4.03 ± 0.36 | 4.1 ± 0.3 |
| YKENFLKRFQLTKLPPYLIFCIKR [USP39] | 3.02 ± 0.77 | 2.82 ± 0.43 |
| RMLEFDPAQRITLAEALLHPFFAG [CLK3] | 2.38 ± 0.25 | 2.39 ± 0.19 |
| FSSYNKQDNNCHFDAALVSFINFF [SLC6A17] | 2.81 ± 0.39 | 2.64 ± 0.41 |
| MEIMEAYSVARQFNLTPPICEQAE [KCNAB2] | 3.72 ± 0.18 | 3.65 ± 0.33 |
| VDDKFGTGTKKVTRILDGGNPFLD [PSD2] | 4.18 ± 0.051 | 4.23 ± 0.25 |
| GRVLLANSTQADEGKTKKGVLEAP [FBXO34] | 5.01 ± 0.17 | 4.9 ± 0.13 |
| THLEAQNRIKGCHDHLTLSVSRPE [PDLIM4] | 3.57 ± 0.18 | 3.66 ± 0.23 |
| AGGAGGGVTEEQEGFADGFVKALD [JUNB] | 5.32 ± 0.17 | 5.35 ± 0.085 |
